The data set concerns Nek6. Put plainly: Activity and phosphorylation of GST Nek6 coexpressed with Nercc1 noncatalytic fragment in HEK293 cells. It is filed as cell-based, human. As to the method: GST Nek6 was coexpressed with increasing quantities of FLAG Nercc1 (347-979). The kinase activity of GST Nek6 was measured using MBP as substrate.
GST Nek6 was cotransfected in HEK293 cells with increasing amounts of FLAG Nercc1 (347-979), and immunoblots of the extracts were carried out using the indicated antibodies.

One molecule from patent US20060052582A1, “Identification of inhibitors of mitosis” (priority 2002, published 2006) can be followed below.

Chain of Nek6 (Q9HC98 whole entry, the tested form may be a part): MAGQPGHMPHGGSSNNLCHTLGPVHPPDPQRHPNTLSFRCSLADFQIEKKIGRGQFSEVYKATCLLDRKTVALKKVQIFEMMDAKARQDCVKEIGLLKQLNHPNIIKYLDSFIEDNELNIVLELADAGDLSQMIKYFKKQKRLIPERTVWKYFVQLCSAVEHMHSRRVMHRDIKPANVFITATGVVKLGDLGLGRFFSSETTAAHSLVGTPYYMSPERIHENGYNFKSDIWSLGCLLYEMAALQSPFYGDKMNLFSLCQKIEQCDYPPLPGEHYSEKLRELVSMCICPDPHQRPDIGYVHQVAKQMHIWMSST

B1: FLAG Nercc1 (347-979): FLAG-tagged polypeptide consisting of Nercc1 amino acids 347-979 of SEQ ID NO:2 (protein, listed as Homo sapiens)
chain: SEVYIWGGGKSTPQKLDVIKSGCSARQVCAGNTHFAVVTVEKELYTWVNMQGGTKLHGQLGHGDKASYRQPKHVEKLQGKAIHQVSCGDDFTVCVTDEGQLYAFGSDYYGCMGVDKVAGPEVLEPMQLNFFLSNPVEQVSCGDNHVVVLTRNKEVYSWGCGEYGRLGLDSEEDYYTPQKVDVPKALIIVAVQCGCDGTFLLTQSGKVLACGLNEFNKLGLNQCMSGIINHEAYHEVPYTTSFTLAKQLSFYKIRTIAPGKTHTAAIDERGRLLTFGCNKCGQLGVGNYKKRLGINLLGGPLGGKQVIRVSCGDEFTIAATDDNHIFAWGNGGNGRLAMTPTERPHGSDICTSWPRPIFGSLHHVPDLSCRGWHTILIVEKVLNSKTIRSNSSGLSIGTVFQSSSPGGGGGGGGGEEEDSQQESETPDPSGGFRGTMEADRGMEGLISPTEAMGNSNGASSSCPGWLRKELENAEFIPMPDSPSPLSAAFSESEKDTLPYEELQGLKVASEAPLEHKPQVEASSPRLNPAVTCAGKGTPLTPPACACSSLQVEVERLQGLVLKCLAEQQKLQQENLQIFTQLQKLNKKLEGGQQVGMHSKGTQTAKEEMEMDPKPDLDSDSGCLLGTDSCRPSL
modifications: FLAG tag
Regarding B1, under “cotransfected in HEK293 cells”, the “effect on Nek6 activation loop phosphorylation” value was “suppresses”. Also, the “effect on kinase activity of coexpressed GST Nek6” value (overexpression in vivo, MBP as substrate) was “inhibited”.
